From patent US12459987B2, “Monoclonal antibodies for prevention and treatment of herpes simplex viral infections” (priority 2019, dated 2025)
“Also recorded” adds a separate entry of the source.

Key:
[1] = biological target: human herpesvirus glycoprotein B (gB) (Human herpesvirus 2, UniProt P08666); experiment: Immunoprecipitation-Mass Spectrometry (IP-MS) target identification; type: binding
Method: FIG. 7A-7B. Immunoprecipitation-Mass Spectrometry (IP-MS) was performed to identify the binding targets of 22D10, 33B8, and BMPC-23 antibodies.
IP-MS was performed to identify the targets of 22D10, 33B8, and BMPC-23 antibodies.

[2] = system: uninfected Vero lysate; experiment: ELISA binding to control uninfected Vero lysate
Method: (§1) Binding of recombinant antibodies to HSV-2 G lysates was tested by ELISA. Both heavy and light chain V(D)J rearrangements were amplified from selected single B-cell culture wells (22D10, 32H6, 33B8, and 35H7) by standard RT-PCR. These cloned V(D)J rearrangements were introduced into expression vectors. Recombinant antibodies were obtained by co-transfection of these expression vectors into Expi293F cells. ≥4 mg of purified IgGs was obtained (not shown).
as §1, with “Based on the obtained V(D)J sequences from each B-cell culture, paired heavy and light chains were re-expressed (as recombinant mouse IgG1 and IgG2c antibodies) in Expi293F cells (Kuraoka et al. Immunity 2016; DiLillo et al. Nature Medicine 2013). […] As expected, all recombinant antibodies reacted specifically with HSV-2 G lysates (FIG. 3). […] Binding” for “Binding”, “shown). […]” for “shown).”

[3] = system: HSV-2 G infected cell lysates; experiment: ELISA binding of recombinant antibodies to HSV-2 G infected cell lysates; parameters: species or system HSV-2 G strain
Method: as §1, with “shown). […]” for “shown).”
Briefly, mice were vaccinated with ΔgD-2 and then 16 days after vaccination, the draining, inguinal lymph nodes were harvested. GC B cells were isolated from these tissues and were cultured in Nojima cultures. Although overall cloning efficiency of GC B cells from these (shipped) tissues was lower than those from freshly isolated tissues (6% vs. 20%), 50 GC clones were obtained that were specific to HSV-2 G strain (HSV-2 G or HSV2-G) lysate. GC B cells from inguinal lymph nodes of mice vaccinated with ΔgD-2 were sorted directly into 96-well plates (1 cell/well). These GC B cells were then cultured in the presence of NB-21.2D9 feeder cells. After culture, presence of IgG was first determined by ELISA, and then the reactivity of culture supernatant IgG against HSV-2 G lysates (HSV-2 G) and uninfected Vero lysates were tested by ELISA.
Based on the obtained V(D)J sequences from each B-cell culture, paired heavy and light chains were re-expressed (as recombinant mouse IgG1 and IgG2c antibodies) in Expi293F cells (Kuraoka et al. Immunity 2016; DiLillo et al. Nature Medicine 2013). […] As expected, all recombinant antibodies reacted specifically with HSV-2 G lysates (FIG. 3). […] Binding of recombinant antibodies to HSV-2 G lysates was tested by ELISA. Both heavy and light chain V(D)J rearrangements were amplified from selected single B-cell culture wells (22D10, 32H6, 33B8, and 35H7) by standard RT-PCR. These cloned V(D)J rearrangements were introduced into expression vectors. Recombinant antibodies were obtained by co-transfection of these expression vectors into Expi293F cells. ≥4 mg of purified IgGs was obtained (not shown). […] These recombinant antibodies (≥4 mg each) were tested for identification of reacting antigen(s), in an in vitro FcγRIV activation assay (Promega FcγRIV ADCC Reporter Bioassay)(FIG. 4), and in vivo protection assay. […]

[4] = system: HSV-2; experiment: Passive transfer in vivo protection assay, lethal HSV-2 challenge; parameters: species or system mice
Method: Mice were prime-boost immunized with ΔgD-2 and the spleens, draining lymph nodes or bone marrow were isolated. Germinal center (GC) B cells were then cultured on NB-21.2D9 cells (Nojima cultures). After culture, supernatants were screened for the presence of HSV-lysate binding IgG by ELISA. The V(D)J rearrangements amplified from selected GC B-cell cultures for the B-cell antigen receptor (BCR) repertoire analysis in GC B cell clones among individual mice were sequenced. Then, reconstituted antibodies from selected single GC B cell cultures and from single, bone marrow plasmacytes were evaluated for ability to activate the mFcγRIV in vitro and to protect mice in a passive transfer model.
Both IgG1 and IgG2c forms of 22D10, 33B8, and BMPC-23 antibodies (≥4 mg each) were assessed for reproducibility of in vivo protection assay, and any dependency on Ig isotype for protection. […] To test roles of Ig isotypes on ability to provide protection, IgG1 and IgG2c isotypes of these three antibodies were generated and assessed for ability to activate mFcγRIV signaling (as a measurement for ADCC), and for in vivo protection assay.

[5] = biological target: glycoprotein B of HSV-1 (gB-1) (Human herpesvirus 1, UniProt P10211); experiment: Luminex multiplex assay, binding to gB-1; details: Table 3 summary
Method: FIGS. 9A and 9B are graphs of median fluorescence intensity (MFI) versus IgG concentration (ng/ml), showing the binding of various recombinant antibodies to gB-1 as measured by Luminex multiplex assay.
BMPC-23 binds HSV-1 gB (gB-1). The gB-1 binding of the antibodies was determined by Luminex multiplex assay. Mixtures of antigen (gB-1)-conjugated microspheres (1,000 counts each) were added to each well of 96-well filter plates (Millipore). After washing with PBS containing 1% BSA, 0.05% Tween 20 and 0.05% NaN3, serially diluted recombinant antibodies (5E7, 19G7, 18G4, 22E10, 3A2, 17G3, 22D10, 32H6, 33B8, 25H7, BMPC-23, and S5V2-29) were added to the plates and incubated for 2 hours at room temperature, with mild agitation of the plates. Samples were diluted in PBS containing 1% cow milk, 1% BSA, 0.05% Tween 20 and 0.05% NaN3. After washing, PE goat anti-mouse IgG was added to the plates and incubated for 1 hour at room temperature with mild agitation. After washing, microspheres were resuspended in PBS containing 1% BSA, 0.05% Tween 20 and 0.05% NaN3 and fluorescent signals from each microsphere were measured in a Bio-Plex® 3D machine.
Finding gB-1 specific HSV antibodies. After Nojima culture (single B-cell culture), HSV-specific antibodies were cloned from germinal center B cells and tested for binding to HSV-1 gB-1 by Luminex multiplex assay as described above. FIGS. 9A and 9B show the gB-1 binding results for 10 antibodies in comparison with BMPC-23. With the exception of BMPC-23, the antibodies in Table 3 were derived from germinal center B cells (lymph nodes) taken 15-17 days after primary vaccination with ΔgD-2. BMPC-23 was derived from bone marrow plasmacytes taken 2 weeks post-boost with ΔgD-2. Nucleotide sequences and amino acid sequences for the heavy-chains and light chains are shown in Table 4, as are the amino acid sequences for the light chain and heavy chain CDR1, CDR2, and CDR3.

B1: 33B8: monoclonal antibody from germinal center B cell; IgH SEQ ID NO: 28, IgL SEQ ID NO: 30 (antibody, V domains shown)
VH: EVKLVESGGGLVQPGGSLSLSCATSGFTFTDYYMNWVRQPPGKALEWLGFIRNKANGYTTEYSASVKGRFTISRDNSQSILYLQMNSLRAEDSATYYCACGNYVGYAMDYWGQGTSVTVSSA
VL: DIVMSQSPSSLAVSAGEKVTMSCKSSQSLLNSRTRKNYLAWYQQKPGQSPKLLIYWASTRESGVPDRFTGSGSGTDFTLTISSVQAEDLAVYYCKQSYNLYTFGGGTKLEIKR
modifications: 33B8 heavy chain; 33B8 light chain
Binding target identified by IP-MS [1]: human herpesvirus glycoprotein B (gB) | Binding to control, uninfected Vero lysate [2]: did not bind | Binding of recombinant antibodies to HSV-2 G lysates ([3]; ELISA, recombinant antibodies expressed in Expi293F cells): Retention of HSV-2 G lysate-binding | Binding to HSV-lysate ([3]; Table 3 summary): Yes | Mice protected from lethal challenge ([4]; IgG2c version, overall results from 2 independent experiments, passive transfer): 4/10 | in vivo protection ([4]; Table 3 summary): Yes | Protection against lethal HSV-2 challenge ([4]; as IgG2c, passive transfer, overall survival, epithelial and neurological assays): significant protection; also recorded: provides protection | Target antigens [5]: (not gB)
